In experiment [1] the test system is PC12 cells. In words: Protection of PC12 cells from apoptosis induced by trophic factor withdrawal (DAPI, TUNEL). Format: cell-based. As to conditions: serum-free RPMI-1640/0.2% BSA, 17 hours, DAPI or TUNEL. From the text: PC12 cells were obtained from ATCC (Manassas, Va. (Accession No. CRL-1721)) and cultured on collagen-coated dishes in RPMI 1640 supplemented with 10% horse serum and 5% fetal bovine serum (Greene, L., and Tishler, A., Proc. Natl. Acad. Sci. USA, 73:2424-2428 (1976)). For differentiation and survival experiments, cells were washed three times in serum-free RPMI/0.2% BSA, plated in the same medium in collagen-coated plastic dishes at 2×10^5/ml, without and with growth factors, TS, recombinant proteins, synthetic peptides, for the time and concentrations indicated in the Figures.
Cell staining with 4,6-diamino-2-phenylindole (DAPI). Cells were fixed with 4% formaldehyde in PBS for 5 minutes, washed with PBS, stained with 10 μg/ml DAPI (Sigma) for 2 minutes, washed with PBS, and visualized under UV light using a fluorescent microscope. About 300-400 cells were examined under the microscope to determine the percentage of apoptotic cells.
Cell DNA nick end labeling (TUNEL) (Gavrieli, Y. et al., J. Cell. Biol., 119:493-501 (1992)) assay was performed using a kit purchased from Boehringer Mannheim as described by the manufacturer.
Protection against apoptosis of PC12 cells in serum-free medium containing a test agent (agent N) (e.g., protection induced by TS, TS fragments, NGF or other growth factors), was calculated by the formula: 100%−[(apoptosis(%) of cells kept in RPMI containing test agent N÷apoptosis (%) of cells kept in RPMI)×100%]. Testing the effect of Wortmannin (Sigma) and LY294002 (Sigma) in inhibiting the neuroprotection of TS was performed following the protocol described by others (Yao, R., and Cooper, G., Science, 267:2003-2006 (1995); D'Mello, et al., J. Neurosci., 17:1548-1560 (1997)). In brief, PC12 cells were switched from growth medium to RPMI without and with TS or various other growth factors. After 24 hours, Wortmannin and LY294002 were added to the cultures. After another 24 hours, cells were examined for apoptosis by the DAPI assay, as above.

Experiment [2] concerns Bcl-2. In words: Bcl-2 gene expression in PC12 cells by RT-PCR. The format is cell-based, rat. Particulars: TS 2.5 ng/ml, CNTF 50 ng/ml, alone or combined, 17 hours. The protocol:
Total RNA was extracted from PC12 cells by the acid guanidinum isothiocyanate method (Chomchinski, P., Biotechniques, 15:532-535 (1993)) using TRI-reagent (Molecular Research Center, Inc.) cDNA synthesis was performed according to the instruction of the manufacturer (Gibco-BRL). Reverse transcription reactions were carried out for 50 minutes at 42° C. and were heated to 70° C. for 15 minutes to terminate the reaction using a MiniCycler (MJ Research). Samples were cooled to 4° C. and stored at −20° C. until use.
PCR reactions were performed in 50 μl containing 1.5 μl of template DNA (corresponding to cDNA synthesized from 100 ng of total RNA), 1×PCR buffer, 100 μM of deoxynucleotides, 2.5 mM MgCl2, 10 mM DTT, 10 μM of Bcl-2 primers, and 2 U of Taq DNA polymerase (Gibco-BRL). The synthetic DNA primers for the rat Bcl-2 were: 5′-[…]-3′ (SEQ ID NO:8) and 5′-[…]-3′ (SEQ ID NO:9) to give a PCR product of 566 bp. The sequences for synthetic GAPDH DNA primers (Wong, H. et al., Anal. Biochem., 223: 251-258 (1994)) were: 5′-[…]-3′ (SEQ ID NO:10) and 5′-[…]-3′ (SEQ ID NO:11) giving a PCR produce of 306 base pairs. […] Gels were analyzed by computerized densitometric scanning using Gel doc 1000 (Bio Rad) and Molecular Analyst Software, version 2.1.

B1: CNTF: human ciliary neurotrophic factor; recombinant human and rat CNTF (protein, UniProt P26441 1-200, looked up)
Ciliary neurotrophic factor: MAFTEHSPLTPHRRDLCSRSIWLARKIRSDLTALTESYVKHQGLNKNINLDSADGMPVASTDQWSELTEAERLQENLQAYRTFHVLLARLLEDQQVHFTPTEGDFHQAIHTLLLQVAAFAYQIEELMILLEYKIPRNEADGMPINVGDGGLFEKKLWGLKVLQELSQWTVRSIHDLRFISSHQTGIPARGSHYIANNKKM
For B1, the “protection of PC12 cells from apoptosis induced by trophic factor withdrawal” value in experiment [1] is listed as “produced little, if any, protection”. In addition, in experiment [2], the “bcl-2 mRNA expression in PC12 cells” value is listed as “did not induce bcl-2 gene expression individually”.

The record behind these values is patent US20090117593A1, “T. Cruzi-derived neurotrophic agents and methods of use therefor” (Tufts University, priority 2006, published 2009).
